Measured values from the supplement of paper PMC10567573.

B1: SPATS1 (parent)
chain: YPEQSKGFHKAGSMLPPVNFSIVP
B2: FBXO3 (parent)
chain: HDPLWRRHCKKYWLISEEEKTQKN

Variants of: B1
Assay: protein stability index of a GFP-peptide fusion (GPS, HEK-293T) (PSI 1-6); higher = more stable
Settings: c terminus: a fixed tail appended
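Note: lentivirally expressed fusions sorted by FACS into six bins by GFP to DsRed ratio, PSI derived from sequencing read proportions per bin multiplied by bin number.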

Protein stability index of substitutions, site by site:
A11: H 2.21
F8: V 2.86
K6: V 1.67
P24: M 2.5
K10: T 2.08, N 2, Y 2.15
N19: I 2.41
P16: I 1.54, K 2.01
V23: K 2.1, D 1.88
G7: I 2.34
S21: Q 1.88, K 2.15
V18: A 2.56, Q 2.2
I22: A 2.22, R 2.52
H9: E 2.81, P 2.19
L15: V 1.85
S13: L 1.88
E3: Q 2.5, R 1.64
G12: D 2.08
P17: T 1.59, G 1.83
F20: N 2.22
Y1: M 2.97, H 3.18, K 3.38

Variants of: B2
Assay: as above
Settings: c terminus: a fixed tail appended

Protein stability index of substitutions, site by site:
K10: Y 2.52, V 2.57, R 3.06, P 4.06, D 4.05, W 2.95, E 3.81, N 3.51, M 2.28, F 2.77, Q 3.28, A 2.91, I 2.02, G 3.41, T 2.71, H 3.27, S 3.32, C 2.27, L 2.34
C9: W 3.16, V 3.8, L 2.93, G 4.08, I 3.58, R 3.68, H 3.42, M 2.55, K 3.59, E 4.37, Y 3.31, P 4.15, T 3.7, Q 3.9, F 2.65, S 3.27, N 4.14
W13: L 3.84, V 3.85, M 3.76, F 3.85, H 4.21, Q 4.28, K 4.65, S 3.97, E 4.52, T 4.22, R 3.46, N 4.37, Y 3.19, D 4.38, A 4.04, I 3.91, G 4.26, C 3.67, P 4.21
Y12: A 3.44, S 3.91, V 3.83, E 4.48, M 2.98, N 3.58, R 3.59, L 3.74, T 4.13, I 3.48, C 3.4, P 3.78, H 3.72, W 3.12, G 3.74, D 4.63, Q 3.61, K 3.89, F 3.22
N24: F 2.47, S 2.91, G 2.61, C 2.73, D 3.68, I 2.48, H 2.99, T 3.47, P 3.87, A 2.9, R 3.22, W 2.47, V 3.02, K 2.79, M 3.4, E 3.12, Q 3.43, L 2.81, Y 2.44
K11: E 3.59, A 3.6, M 2.44, N 2.65, S 2.79, H 3.26, T 2.71, Q 3.45, D 3.12, W 2.41, I 2.27, F 2.4, R 3.35, G 2.7, P 2.67, Y 2.31, L 1.93, V 2.28, C 2.63
Q22: I 2.49, M 3.01, W 2.05, P 3, K 2.89, H 2.99, T 3.42, C 2.79, R 2.95, G 3.18, A 3.29, L 2.57, S 2.97, Y 2.58, D 3.35, V 3.44, F 2.56, N 3.19, E 3.42
E18: T 2.89, A 2.55, K 3.04, D 3.2, R 2.81, V 2.5, M 2.28, C 2.95, G 2.75, F 2.55, Q 2.94, W 2.38, P 2.91, L 2.46, S 3.01, Y 2.31, H 3.3, N 3.15, I 2.46
S16: R 3.27, T 3.51, V 2.73, Q 2.99, G 2.95, L 2.72, E 3.8, M 2.99, D 3.84, A 3.21, K 3.21, P 3.77, N 3.5, W 2.52, C 2.99, Y 2.72, H 3.09, I 2.4, F 2.46
E17: P 3.52, H 3.05, L 2.47, V 2.23, F 2.56, Y 2.62, G 3, A 3.41, N 2.98, M 2.22, S 3.26, Q 2.98, W 2.37, I 2.31, K 3.31, C 2.64, D 3.48, T 3.1, R 3
T21: M 2.63, K 2.94, V 2.99, L 2.76, Y 2.74, D 3.25, C 3.39, G 2.91, H 2.86, I 3.29, E 3.31, R 2.83, N 2.95, S 3.03, Q 3.21, A 2.84, F 2.64, P 3.32, W 2.44
K23: S 3.38, L 2.94, V 3.6, Q 3.27, G 3.65, R 3.16, N 3.05, W 2.7, H 3.24, P 3.11, I 2.93, M 3.19, C 3.09, A 3.34, E 3.8, D 3.95, T 3.31, F 2.85, Y 2.91
L14: P 4.11, H 3.49, K 3.53, M 3.27, W 3.31, Q 3.58, T 3.65, G 3.79, F 3, Y 3.56, A 3.57, V 3.27, E 3.77, D 3.98, C 3.3, S 3.88, I 2.99, N 4.4, R 3.3
E19: I 2.38, F 2.04, Q 3.26, N 2.88, R 2.94, Y 2.54, W 1.9, V 2.67, S 3.05, D 3.17, T 2.71, H 2.91, L 2.35, P 2.98, C 2.84, A 2.83, K 2.92, G 3.05, M 2.66
K20: V 3.29, Q 3.66, I 2.58, G 3.51, P 2.91, S 3.2, N 3.24, Y 2.71, F 2.6, M 3.03, E 3.64, W 2.33, R 3.38, H 2.95, L 2.88, D 3.35, A 2.85, T 2.89, C 2.9
I15: F 3.38, E 3.88, P 3.68, N 3.67, V 3.85, M 3.16, Y 3.21, C 3.73, D 3.69, T 3.61, L 3.44, R 4.68, Q 3.68, W 3.19, G 3.69, K 3.47, A 3.38, S 3.62, H 2.72
